# Results as given in the supplement of paper PMC7125110.
# ± gives the standard error. For part of these data: This sample holds only a part of the variants without activity.
# B1: glmS ribozyme (parent)
# chain: AUAAAAGCGCCAGAACUACAGAAAUGUAGUUGACGAGGAGGAGGUUUAUCGAAUUUUCGGCGGAUGCCUCCAAA
# Columns and labels:
# Conditions in all cases: with glucosamine-6-phosphate
# glucosamine-6-phosphate [1] = variants of: B1; test: kcat; higher = faster cleavage; RNA array
# In short: (§1)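 Barcoded ribozyme variants, transcribed in situ by E. coli RNA polymerase on sequenced MiSeq chips, were followed via a hybridised Cy3 probe at 37 °C. Glucosamine-6-phosphate ranged from 40 μM to 10 mM in HEPES/KCl/Mg(OAc)2 buffer. kobs came from decay fits to per-tile medians, and kcat and KM from weighted Michaelis–Menten fits.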
# glucosamine-6-phosphate [2] = variants of: B1; test: self-cleavage kobs at 10000 uM GlcN6P; higher = faster cleavage; RNA array
# In short: as §1
# glucosamine-6-phosphate [3] = variants of: B1; test: KM; higher = weaker cofactor use; RNA array
# In short: as §1
# glucosamine-6-phosphate [4] = variants of: B1; test: self-cleavage kobs at 160 uM GlcN6P; higher = faster cleavage; RNA array
# In short: as §1
# glucosamine-6-phosphate [5] = variants of: B1; test: self-cleavage kobs at 640 uM GlcN6P; higher = faster cleavage; RNA array
# In short: as §1
# glucosamine-6-phosphate [6] = variants of: B1; test: self-cleavage kobs at 2500 uM GlcN6P; higher = faster cleavage; RNA array
# In short: as §1
# glucosamine-6-phosphate [7] = variants of: B1; test: self-cleavage kobs at 40 uM GlcN6P; higher = faster cleavage; RNA array
# In short: as §1
Variant,kcat (glucosamine-6-phosphate [1]) [s⁻¹],self-cleavage kobs at 10000 uM GlcN6P (glucosamine-6-phosphate [2]) [s⁻¹],KM (glucosamine-6-phosphate [3]) [µM],self-cleavage kobs at 160 uM GlcN6P (glucosamine-6-phosphate [4]) [s⁻¹],self-cleavage kobs at 640 uM GlcN6P (glucosamine-6-phosphate [5]) [s⁻¹],self-cleavage kobs at 2500 uM GlcN6P (glucosamine-6-phosphate [6]) [s⁻¹],self-cleavage kobs at 40 uM GlcN6P (glucosamine-6-phosphate [7]) [s⁻¹]
A15U A33G,< 1e-05,< 1e-05,–,–,–,–,–
A15G G51U C71A,1.45e-05 ± 1.7e-06,< 1e-05,510 ± 210,–,–,–,–
A15C G29C G37A C61U,< 1e-05,–,–,–,–,–,–
A15G C67G,0.00126 ± 0.0001,0.000966 ± 0.00011,2600 ± 330,7.63e-05 ± 1.2e-05,0.000243 ± 2.4e-05,0.000654 ± 6.3e-05,–
A15G A36U,< 1e-05,–,–,< 1e-05,< 1e-05,–,–
A15C U55G,0.00196 ± 0.00085,0.00334 ± 0.00064,–,0.000255 ± 4.7e-05,–,0.00118 ± 0.0002,0.000128 ± 3e-05
A15C U55A,0.00649 ± 0.0016,0.0054 ± 0.00095,1920 ± 650,0.000516 ± 8.7e-05,0.00128 ± 0.00023,0.00484 ± 0.00095,0.000161 ± 2.8e-05
A15U A53U,0.00543 ± 0.0013,0.0042 ± 0.00042,2950 ± 940,0.000245 ± 3.8e-05,0.000755 ± 0.00012,0.00314 ± 0.00055,9.26e-05 ± 9.9e-06
A15C C71U,0.00455 ± 0.0014,0.00453 ± 0.00056,1580 ± 690,0.000358 ± 4.6e-05,0.00111 ± 0.00013,0.00266 ± 0.00039,0.000165 ± 1.6e-05
A15C U49G,0.000113 ± 1.2e-05,9.51e-05 ± 1.9e-05,1520 ± 550,–,–,8.06e-05 ± 2.4e-05,–
A15C U55G C70A,4.71e-05 ± 9.2e-06,3.54e-05 ± 1.7e-05,–,–,5.4e-05 ± 1.4e-05,4.46e-05 ± 1.3e-05,–
A15C U31G,0.00453 ± 0.0018,0.00376 ± 0.0012,–,0.000187 ± 5.2e-05,–,0.00159 ± 0.00063,8.5e-05 ± 3.2e-05
A15C U31A,0.00691 ± 0.0013,0.0067 ± 0.001,1860 ± 480,0.000607 ± 0.00013,0.0015 ± 0.00035,0.00303 ± 0.00078,0.000156 ± 2.2e-05
A15G U45G,0.00832 ± 0.00089,0.00741 ± 0.001,1730 ± 260,0.000643 ± 9.8e-05,0.0024 ± 0.00037,0.0044 ± 0.00084,0.000211 ± 3.4e-05
A15G G29C,0.00276 ± 0.00064,0.002 ± 0.00023,3540 ± 1400,0.000187 ± 5.3e-05,0.000327 ± 7.2e-05,0.00156 ± 0.00032,3.64e-05 ± 1.1e-05
